Assay results reported in publication PMC7112233, “E2f5 is a versatile transcriptional activator required for spermatogenesis and multiciliated cell differentiation in zebrafish”.

Target: T1, E2f5 (zebrafish, UniProt A5WUE8 1-363)
T1 sequence: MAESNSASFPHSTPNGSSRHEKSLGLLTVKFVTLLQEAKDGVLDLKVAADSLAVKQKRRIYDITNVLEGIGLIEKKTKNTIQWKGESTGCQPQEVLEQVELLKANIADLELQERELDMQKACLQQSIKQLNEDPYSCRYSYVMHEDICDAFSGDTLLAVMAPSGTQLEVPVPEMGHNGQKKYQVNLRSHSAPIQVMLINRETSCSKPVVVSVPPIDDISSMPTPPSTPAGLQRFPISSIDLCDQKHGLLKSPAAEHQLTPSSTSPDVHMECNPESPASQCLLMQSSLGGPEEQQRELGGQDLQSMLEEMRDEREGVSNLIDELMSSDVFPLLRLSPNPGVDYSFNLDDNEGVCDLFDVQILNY
Test: EMSA; 10 mM Tris-HCl pH 8.0, 50 mM NaCl, 1 mM MgCl2, 0.5 mM EDTA, 0.5 mM DTT, 4% glycerol; 3 ug protein, 1 ul annealed oligo (25 uM stock); 40 min room temperature; 6.5% native PAGE
Conditions: protein: recombinant; tags: His (pET30A, Ni-NTA purified); label: 5'-FAM; annealed with complementary oligonucleotide

B1: dmc1 E2F site mutant probe (dsDNA)
DNA 1: TGTCAACATACGATTGTAAATTTAAATTTCTTTCAGC
DNA 2: GCTGAAAGAAATTTAAATTTACAATCGTATGTTGACA
binding result: no binding

B2: dmc1 E2F site wild-type probe (dsDNA)
DNA 1: TGTCAACATACGATTGTGGCGCGAAATTTCTTTCAGC
DNA 2: GCTGAAAGAAATTTCGCGCCACAATCGTATGTTGACA
binding result: binds
